Columns and labels:
[1] = target: Human CD16a/FcγRIIIa 158F (human) (UniProt P08637); experiment: SPR
[2] = target: Human CD16a/FcγRIIIa 158V (human); experiment: SPR
Sequence of Human CD16a/FcγRIIIa 158V (human) (P08637 17-208): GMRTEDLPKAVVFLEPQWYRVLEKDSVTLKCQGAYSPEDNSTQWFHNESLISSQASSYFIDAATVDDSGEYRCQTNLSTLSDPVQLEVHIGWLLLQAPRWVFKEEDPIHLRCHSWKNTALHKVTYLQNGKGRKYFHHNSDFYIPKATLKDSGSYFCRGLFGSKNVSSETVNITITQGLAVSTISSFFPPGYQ

Row | Substance | Kd [1] [nM] | Kd [2] [nM]
1 | T-mab (in-house made trastuzumab biosimilar) (antibody) | 1630 | 311
2 | P-mab (in-house made pertuzumab biosimilar) (antibody) | 2710 | 818
